IC50 data for one molecule are collected here from patent publication US20230106247A1 (L AND L BIO CO LTD NINGBO CHINA, published 2023).

This test concerns the target T1, human Sirpα-V1-his (human, UniProt P78324 31-373).
T1 construct: range 31-373; Bought (Sino Biological 11612-H08H) or expressed in-house; also called hSirpα-V1; hSirpα-V1-his
Kind of test: blocking ELISA, competitor CD47-hFc. How it is done: The recombinant proteins such as human Sirpα-V1-hFc/Sirpα-V1-his were diluted to concentrations of 5 μg/mL or 2 μg/mL respectively with a PBS buffer at pH 7.4, and then added into a 96-well ELISA plate (Corning, CLS3590-100EA) at a volume of 50 μL/well, and placed in an incubator at 37° C. for 2 hours. After the liquid was discarded, the wells were added with a blocking solution of 5% skimmed milk (skimmed milk powder available from Bright Dairy) diluted with PBS at 230 μL/well, and incubated in an incubator at 37° C. for 3 hours, or placed overnight at 4° C. (for 16-18 hours) for blocking. […] The plate was washed for 5 times, added with 50 μL/well of streptavidin-HRP (GenScript, M00091) or anti-his-HRP secondary antibody (GenScript, A00612) diluted at 1:1000, incubated at 37° C. for 1 hour, and then washed with PBST for 5 times. Each well was added with 50 μL of TMB (Surmodic, Cat #: TTMB-1000-01) for color development, and added with 50 μL/well of 1 M H₂SO₄ to stop the reaction. The readings on a microplate reader (MultiskanGO Thermo, Model 51119200) were subjected to data analysis by GraphPad prism 5.
Background: ELISA stands for enzyme-linked immunosorbent assay.

B1: humanized antibody mab14-h16 (antibody, human IgG4 S228P, kappa, V domains shown)
VH: QVQLVQSGAEVKKPGASVKVSCKASGYNFNIYWINWVRQAPGQGLEWIGNIYPSSISTNYNEKFKTRATLTVDKSTSTVYMELSSLRSEDTAVYYCARSEGTYYGGRYEGDWFGYWGQGTLVTVSS
VL: DIQMTQSPSSLSASVGDRVTITCRASQDIRNYLNWYQQKPGKAPKLLIYFTSTLHSGVPSRFSGSGSGTDFTLTISSLQPEDFATYYCQQGNTLPWTFGGGTKVEIKR
notes: hIgG4, κ
In the case of B1, the IC50 – broadly, the concentration needed to halve the response being measured – turned out to be 10.1 nM.
